The values below are quoted from earlier work in PMC7419686.

For orientation: Kd means the free concentration of one partner at which half of the binding sites on the other are occupied at equilibrium, for simple one-to-one binding.

The data set has as its target MDMX (Homo sapiens) (UniProt O15151).

Sequence of MDMX (Homo sapiens) (O15151 whole entry): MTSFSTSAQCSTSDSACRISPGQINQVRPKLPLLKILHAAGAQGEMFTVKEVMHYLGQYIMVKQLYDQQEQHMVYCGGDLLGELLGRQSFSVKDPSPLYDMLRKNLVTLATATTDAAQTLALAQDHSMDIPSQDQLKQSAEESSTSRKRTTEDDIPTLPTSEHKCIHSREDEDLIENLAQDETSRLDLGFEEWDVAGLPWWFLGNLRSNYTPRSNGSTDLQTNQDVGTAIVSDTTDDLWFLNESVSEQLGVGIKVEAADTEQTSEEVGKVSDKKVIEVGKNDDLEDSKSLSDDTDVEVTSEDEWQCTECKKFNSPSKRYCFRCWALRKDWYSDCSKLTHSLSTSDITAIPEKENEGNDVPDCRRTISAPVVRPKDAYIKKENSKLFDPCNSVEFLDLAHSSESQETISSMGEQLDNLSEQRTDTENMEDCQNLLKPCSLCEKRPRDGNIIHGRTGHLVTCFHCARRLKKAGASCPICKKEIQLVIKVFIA

Take SAH-p53-8 (from UniProt P04637): the Kd is 2.3 nM.
